± gives the uncertainty stated by the source.
B1: RNA-binding E3 ubiquitin-protein ligase MEX3C, residues 325 to 391; numbered along this chain, Q5U5Q3 (parent)
chain: GQTTVQVRVPYRVVGLVVGPKGATIKRIQQQTHTYIVTPSRDKEPVFEVTGMPENVDRAREEIEMHI

Variants of: B1
Test: abundance fitness (aPCA) (normalised: wild type 0, dead -1); higher = more abundant; growth selection in yeast, the domain comes from the species named
Settings: Homo sapiens

Variant	abundance fitness
GQTTVQVRVPYRVVGLVVGPKGATIKRIQQQTHTYIVTPSRDKEPVFEVTGMPDNVDRAREEIEMHI	-0.119 ± 0.092
GQTTVQVRVPYRVVGLVVGPKGATIKRIQQQTHTYIVTPSRDKEPVFEVTGMPVNVDRAREEIEMHI	-0.485 ± 0.073
GQTTVQVRVPYRVVGLVVGPKGATIKRIQQQTHTYIVTPSRDKEPVFEVTGMPCNVDRAREEIEMHI	-0.482 ± 0.11
GQTTVQVRVPYRVVGLVVGPKGATIKRIQQQTHTYIVTPSRDKEPVFEVTGMPGNVDRAREEIEMHI	-0.179 ± 0.044
GQTTVQVRVPYRVVGLVVGPKGATIKRIQQQTHTYIVTPSRDKEPVFEVTGMPPNVDRAREEIEMHI	-0.235 ± 0.071
GQTTVQVRVPYRVVGLVVGPKGATIKRIQQQTHTYIVTPSRDKEPVFEVTGMPQNVDRAREEIEMHI	-0.321 ± 0.14
GQTTVQVRVPYRVVGLVVGPKGATIKRIQQQTHTYIVTPSRDKEPVFEVTGMPSNVDRAREEIEMHI	-0.213 ± 0.062
GQTTVQVRVPYRVVGLVVGPKGATIKRIQQQTHTYIVTPSRDKEPVFEVTGMPMNVDRAREEIEMHI	-0.575 ± 0.15
GQTTVQVRVPYRVVGLVVGPKGATIKRIQQQTHTYIVTPSRDKEPVFEVTGMPLNVDRAREEIEMHI	-0.325 ± 0.079
GQTTVQVRVPYRVVGLVVGPKGATIKRIQQQTHTYIVTPSRDKEPVFEVTGMPYNVDRAREEIEMHI	-0.382 ± 0.13
GQTTVQVRVPYRVVGLVVGPKGATIKRIQQQTHTYIVTPSRDKEPVFEVTGMPKNVDRAREEIEMHI	-0.519 ± 0.17
GQTTVQVRVPYRVVGLVVGPKGATIKRIQQQTHTYIVTPSRDKEPVFEVTGMPWNVDRAREEIEMHI	-0.174 ± 0.074
GQTTVQVRVPYRVVGLVVGPKGATIKRIQQQTHTYIVTPSRDKEPVFEVTGMPTNVDRAREEIEMHI	-0.267 ± 0.089
GQTTVQVRVPYRVVGLVVGPKGATIKRIQQQTHTYIVTPSRDKEPVFEVTGMPHNVDRAREEIEMHI	-0.332 ± 0.15
GQTTVQVRVPYRVVGLVVGPKGATIKRIQQQTHTYIVTPSRDKEPVFEVTGMPINVDRAREEIEMHI	-0.377 ± 0.11
GQTTVQVRVPYRVVGLVVGPKGATIKRIQQQTHTYIVTPSRDKEPVFEVTGMPFNVDRAREEIEMHI	-0.815 ± 0.23
GQTTVQVRVPYRVVGLVVGPKGATIKRIQQQTHTYIVTPSRDKEPVFEVTGMPNNVDRAREEIEMHI	-0.419 ± 0.18
GQTTVQVRVPYRVVGLVVGPKGATIKRIQQQTHTYIVTPSRDKEPVFEVTGMPRNVDRAREEIEMHI	-0.248 ± 0.049
GQTTVQVRVPYRVVGLVVGPKGATIKRIQQQTHTYIVTPSRDKEPVFEVTGMPANVDRAREEIEMHI	-0.079 ± 0.053
GQTTVQVRVPYRVVGLVVGPKGATIKRIQQQTHTYIVTPSRDKEPVFEVTGMPENADRAREEIEMHI	-0.585 ± 0.089

Variant	abundance fitness
GQTTVQVRVPYRVVGLVVGPKGATIKRIQQQTHTYIVTPSRDKEPVFEVTGMPENHDRAREEIEMHI	-0.712 ± 0.42
GQTTVQVRVPYRVVGLVVGPKGATIKRIQQQTHTYIVTPSRDKEPVFEVTGMPENKDRAREEIEMHI	-0.402 ± 0.11
GQTTVQVRVPYRVVGLVVGPKGATIKRIQQQTHTYIVTPSRDKEPVFEVTGMPENIDRAREEIEMHI	-0.21 ± 0.094
GQTTVQVRVPYRVVGLVVGPKGATIKRIQQQTHTYIVTPSRDKEPVFEVTGMPENCDRAREEIEMHI	0.009 ± 0.097
GQTTVQVRVPYRVVGLVVGPKGATIKRIQQQTHTYIVTPSRDKEPVFEVTGMPENWDRAREEIEMHI	-0.809 ± 0.12
GQTTVQVRVPYRVVGLVVGPKGATIKRIQQQTHTYIVTPSRDKEPVFEVTGMPENNDRAREEIEMHI	-1.11 ± 0.48
GQTTVQVRVPYRVVGLVVGPKGATIKRIQQQTHTYIVTPSRDKEPVFEVTGMPENSDRAREEIEMHI	-0.496 ± 0.081
GQTTVQVRVPYRVVGLVVGPKGATIKRIQQQTHTYIVTPSRDKEPVFEVTGMPENLDRAREEIEMHI	-0.574 ± 0.1
GQTTVQVRVPYRVVGLVVGPKGATIKRIQQQTHTYIVTPSRDKEPVFEVTGMPENEDRAREEIEMHI	-0.927 ± 0.22
GQTTVQVRVPYRVVGLVVGPKGATIKRIQQQTHTYIVTPSRDKEPVFEVTGMPENRDRAREEIEMHI	-0.799 ± 0.081
GQTTVQVRVPYRVVGLVVGPKGATIKRIQQQTHTYIVTPSRDKEPVFEVTGMPENYDRAREEIEMHI	-0.62 ± 0.18
GQTTVQVRVPYRVVGLVVGPKGATIKRIQQQTHTYIVTPSRDKEPVFEVTGMPENMDRAREEIEMHI	-0.455 ± 0.19
GQTTVQVRVPYRVVGLVVGPKGATIKRIQQQTHTYIVTPSRDKEPVFEVTGMPENTDRAREEIEMHI	-0.286 ± 0.096
GQTTVQVRVPYRVVGLVVGPKGATIKRIQQQTHTYIVTPSRDKEPVFEVTGMPENDDRAREEIEMHI	-0.75 ± 0.19
GQTTVQVRVPYRVVGLVVGPKGATIKRIQQQTHTYIVTPSRDKEPVFEVTGMPENQDRAREEIEMHI	-0.455 ± 0.1
GQTTVQVRVPYRVVGLVVGPKGATIKRIQQQTHTYIVTPSRDKEPVFEVTGMPEQVDRAREEIEMHI	0.138 ± 0.092
GQTTVQVRVPYRVVGLVVGPKGATIKRIQQQTHTYIVTPSRDKEPVFEVTGMPEYVDRAREEIEMHI	-0.811 ± 0.21
GQTTVQVRVPYRVVGLVVGPKGATIKRIQQQTHTYIVTPSRDKEPVFEVTGMPECVDRAREEIEMHI	-0.544 ± 0.16
GQTTVQVRVPYRVVGLVVGPKGATIKRIQQQTHTYIVTPSRDKEPVFEVTGMPEEVDRAREEIEMHI	-0.401 ± 0.08
GQTTVQVRVPYRVVGLVVGPKGATIKRIQQQTHTYIVTPSRDKEPVFEVTGMPERVDRAREEIEMHI	-0.789 ± 0.084
